Measurements taken from the DeepSol protein solubility set.

Test: soluble on expression in E. coli; label from the status in PepcDB or PDB records

| Sequence | soluble on expression in E. coli |
| --- | --- |
| MAKTLYEKLFDAHVVYEAENETPLLYIDRHLVHEVTSPQAFDGLRAHGRPVRQPGKTFATMDHNVSTQTKDINACGEMARIQMQELIKNCKEFGVELYDLNHPYQGIVHVMGPEQGVTLPGMTIVCGDSHTATHGAFGALAFGIGTSEVEHVLATQTLKQGRAKTMKIEVQGKAAPGITAKDIVLAIIGKTGSAGGTGHVVEFCGEAIRDLSMEGRMTLCNMAIEMGAKAGLVAPDETTFNYVKGRLHAPKGKDFDDAVAYWKTLQTDEGATFDTVVTLQAEEISPQVTWGTNPGQVISVNDNIPDPASFADPVERASAEKALAYMGLKPGIPLTEVAIDKVFIGSCTNSRIEDLRAAAEIAKGRKVAPGVQALVVPGSGPVKAQAEAEGLDKIFIEAGFEWRLPGCSMCLAMNNDRLNPGERCASTSNRNFEGRQGRGGRTHLVSPAMAAAAAVTGHFADIRNIK | soluble |
| MAKTPGLNLSISERASNRLAEIYRNSKENLRISVESGGCHGFQYNLTLEPATKPDIKNDVKDKEFSDDLDDDDSKDIIYVLPEDKGRVIIDSKSLNILNNTTLTYTNELIGSSFKIINGSLKSSCGCGSSFDIEN | not soluble |
| MALARANSPQEALLWALNDLEENSFKTLKFHLRDVTQFHLARGELESLSQVDLASKLISMYGAQEAVRVVSRSLLAMNLMELVDYLNQVCLNDYREIYREHV | soluble |
| MALASAADFFAQQHPSYGRHIGQLYERAVKNDLSFTHTFVNPQVNRSLGYMEEDGEPIAAKVVRETADGLIIKGARLLATQGGMTDELLVLPAGGALLGDEYMYAFSIPSNAPGLKFVCRPSLAAGALVFDAPLSSRFDEIDAMVVFDEVLVPWDRVFFYKNAWFAKEMEEETHLAIMLLHQVLARRIVKTEFFLGTVELLSEAIQIGGYQHVQEKIGEIAAALEALRGMLLASELHAKPDRRGTMVPDPAPLYAAAFLYPRLYPRFADIIQLLGASGLVCLPTEADFSSPLRPDLDRYLQAATLPAEQRVRLFRFAWDMAMSAFGTRQTLYERFFFGDPARFATTFYHRYDREACAEIVRQFLDSEQR | not soluble |
| MALITTGSKFLRALEQEGALAVYAPLEGGYEGRYLRRLRSKGYSALTYSARGLGDPAQFLMDIHGVRPPHLGKQTIGNEAAVGRVEYVLPLVGYPLQNLPANAKGLVLWLLEGHVLSPQELSYFVTLPQAEPRLKVVIEMGGDRGFSWQPLAAVAEAALEHHHHHH | not soluble |
| MALKGEGLQGLLGRGEARLGVGGEEAFQVKGGLLAEPRHGRMGSPVGVQGDLARGVGEGVLPGEHPVEDDPGGVDVSLGARGQAPDELGGQVGGGAQEKGLLETLLGGAREVKVQEAGLPGVHQDVLGLHVPVDQALFVHVGEGEEELVEDPHRLGKRGAFPHPAAELLPRGVGQEEGGAFLQVQGLEDGVEVGVGEPSPHPKLPVPAGAGLRGEELEGVGGAEGVKGQVDPGQGPAGQGPHHPVAAREGFAHQAHRPHYTLRKPGYHGPMRGLVLSGGGARGFAHIGALEVFVEAGLDFEVVAGASMGAIVGALFAAGRSPQEILEIARNTPWLGILGFSFREALFSRGRLRRYLAEHLPQDFADLKRRLVVTAVEVRSGRVVYLFQGDLVSAVLASAAHPLLLRPVRREGLLLFDGGVLDNLPVDAARFLGAEEVWAVDVTPERSVEKPPEGVLGLALRAVDLMQHHLTASRMALYAPEVYLRPELGEVAVQDFLRLEEAVEAGRKAAKRFLESRVGEV | soluble |
| MALKPTIYKFRIALSDMNNDYYDSKNLTIALHPSEKPQRMLARILAFCLNAQKDLEFTKGLSTTEEPDLWHVADDQSITHWIEIGEPEPDRIKKASRLAKQVKVYTYNTKAPVWWEKMSGKFSMLPVSVESFDYDAIDMICQHLDRGTNLSVMITGTSIFVDVNDQHVEVTVKELQSHDAP | not soluble |
| MALLERILARDNLITALKRVEANQGAPGIDGVSTDQLRDDVRAHWSTIRAQLLAGTYRPAPVRRVEIPKPGGGTRQLGIPTVVDRLIQQAILQELTPIFDPDFSPSSFGFRPGRNAHDAVRQAQGYIQEGYRYVVDMDLEKFFDRVNHDILMSRVARKVKDKRVLKLIRAYLQAGVMIEGVKVQTEEGTPQGGPLSPLLANILLDDLDKELEKRGLKFCRYADDCNIYVKSLRAGQRVKQSIQRFLEKTLKLKVNEEKSAVDRPWKRAFLGFSFTPERKARIRLAPRSIQRLKQRIRQLTNPNWSISMPERIHRVNQYVMGWIGYFRLVETPSVLQTIEGWIRRRLRLCQWLQWKRVRTRIRELRALGLKETAVMEIANTRKGAWRTTKTPQLHQALGKTYWTAQGLKSLTQRYFELRQG | not soluble |
| MALNDFHVSEPYTLGIELEMQVINPPGYDLSQDSSTLIDAVKPQLTAGEIKHDITESMLEMATGVCRDIDQAAAQLSAMQHVILQAASEHHLGICGGGTHPFQKWQRQEVCDNERYQRTLENFGYLIQQATVFGQHVHVGCANGDDAIYLLHGLSHFVPHFIALSAASPYMQGADTRFACARLNIFSAFPDNGPMPWVSNWQEFAGLFRRLSYTTMIDSIKDLHWDIRPSPAFGTVEVRVMDTPLTLDHAINMAGLIQATAHWLLTERPFKPQEQDYLLYKFNRFQACRYGLEGVLTDAYTGDRRRLADDTLRLLDNVTPSARKLGADSAIDALRLQVKKGGNEAQYMREFIADGGSLIGLVQKHCEIWAGQ | soluble |
| MALNGAEVDDFSWEPPTEAETKVLQARRERQDRISRLMGDYLLRGYRMLGETCADCGTILLQDKQRKIYCVACQELDSDVDKDNPALNAQAALSQAREHQLASASELPLGSRPAPQPPVPRPEHCEGAAAGLKAAQGPPAPAVPPNTDVMACTQTALLQKLTWASAELGSSTSLETSIQLCGLIRACAEALRSLQQLQHLEHHHHHH | not soluble |
| MALPKLTDEQRKEALAKAAEARKARAELKEQLKRSDITLKEVLDKASSDEIIGKTKVSALLESLPKVGKVKAKEIMEELEIAQTRRLRGLGDRQRRALLERFGYSED | not soluble |
| MALQVASAPHGSSEDSTSASLPANYPYHTRMRRNEYEKAKHDLQIELLKVQSWVKETGQRVVVLFEGRDAAGKGGTIKRFMEHLNPRGARIVALEKPSSQEQGQWYFQRYIQHLPTAGEMVFFDRSWYNRAGVERVMGFCSPLQYLEFMRQAPELERMLTNSGILLFKYWFSVSREEQLRRFISRRDDPLKHWKLSPIDIKSLDKWDDYTAAKQAMFFHTDTADAPWTVIKSDDKKRARLNCIRHFLHSLDYPDKDRRIAHEPDPLLVGPASRVIEEDEKVYAEAAAAPGHANLDIPA | not soluble |
| MALTSFLPAPTQLSQDQLEAEEKARSQRSRQTSLVSSRREPPPYGYRKGWIPRLLEDFGDGGAFPEIHVAQYPLDMGRKKKMSNALAIQVDSEGKIKYDAIARQGQSKDKVIYSKYTDLVPKEVMNADDPDLQRPDEEAIKEITEKTRVALEKSVSQKVAAAMPVRAADKLAPAQYIRYTPSQQGVAFNSGAKQRVIRMVEMQKDPMEPPRFKINKKIPRGPPSPPAPVMHSPSRKMTVKEQQEWKIPPCISNWKNAKGYTIPLDKRLAADGRGLQTVHINENFAKLAEALYIADRKAREAVEMRAQVERKMAQKEKEKHEEKLREMAQKARERRAGIKTHVEKEDGEARERDEIRHDRRKERQHDRNLSRAAPDKRSKLQRNENRDISEVIALGVPNPRTSNEVQYDQRLFNQSKGMDSGFAGGEDEIYNVYDQAWRGGKDMAQSIYRPSKNLDKDMYGDDLEARIKTNRFVPDKEFSGSDRRQRGREGPVQFEEDPFGLDKFLEEAKQHGGSKRPSDSSRPKEHEHEGKKRRKE | soluble |
| MALVIAGERSGVGKTTVTLTLLASLCRRSAIVQSFKVGPDYIDPMFHTYVTGRACRNLDPVLTSEAYVQQCFARHYQESEYALVEGVMGLFDGIGRQEAGGQGAGGRENNFSTSHSALTTDFASTAHVARLLDLPVVLVIDCSRLSGSVAAIAHGYCSFDPRIKMAGVVLNRVGSDRHLSLLQDALKPLQLPILGVLRRQDDITIPDRHLGLIPTAELPELNAVINRLADLGDTCFDWQNLLPLLQAKEVGGREQGAGSRGQGAGEAGEAGGELTARFSPNPQSPIPNPQSPVPHPPKIAVARDRAFNFYYQDNLDLLQQLGAELVFWSPLTDGELPSGVRGMYFGGGFPEVFASQLAENSSARDAVKQAILAGMPTIAECGGLMYLCEQIIDFEGQSWPMVGVLPTSAAMGGRLTLGYRRAVALQDSLLVNVGTHIYGHEFHRSRLITAPTQPLFETYRYDCPENMGCEGWGFPKNIHASYVHLHWGESGEIPRQFIQQCAYFGETIDLVHMYLEHHHHHH | not soluble |
| MAMWVFGYGSLIWKTGFPFDESLPGFIKGYRRVFHQGSTDHRGTPDFPGRTVTLEAAHEEHLEVREKQYDQKEYLDFFTDSNASEPAVAGVMVYIASPDKKSNNNYLGPAPLEDIAKQIVKAKGPSGPNRDYLFNLEEALAQLGFKDKHVTDLANQVRHILSESEELDIDATAATANNV | soluble |
| MANDEEFFIVRCRGPSSYRESVYKYLTGQPSDWNRNSVFLRNMHVGRAKNVKEIFNCILQTQPLPVVQPCHPVRQPRESFYSSHEHDPMDEVLLQEVKEEAHSLAFKGIPIETKGPTPSSTIMNPEVTLRDVLTFHKNIKRRPQETKPAKFDFSAMPSTSRLPPTSPKRYRQFAPPPISMKQSPKICAKTVSCPSTSEVKSPPKKMIIQKIQKHQEAPKPAKVPKIKGEKKKKDGRQDEQEEIDIELKLSKSTVSSQTLKRHNISFERKPQRGI | not soluble |
| MANEANPCPCDIGHKLEYGGMGHEVQVEHIKAYVTRSPVDAGKAVIVVQDIFGWQLPNTRYMADMIARNGYTTIVPDFFVGQEPWDPAGDWSTFPAWLKSRNARKVNREVDAVLRYLRQQCHAQKIGIVGFCWGGVVVHQVMTAYPDIRAGVSVYGIIRDSEDVYNLKNPTLFIFAENDTVIPLEQVSTLTQKLKEHCIVNYQVKTFSGQTHGFVHRKREDCSPADKPYIEEARRNLIEWLNKYV | not soluble |
| MANFPASLLILNGKSADNQPLREAITLLRDEGIQIHVRVTWEKGDAQRYVDEARRLGVETVIAGGGDGTINEVSTALIQIRDGVAPALGLLPLGTANDFATSAGIPEALDKALKLAIAGNAMEIDMAMVNDKTCFINMATGGFGTRITTETPEKLKAALGGVSYLIHGLMRMDTLTPDRCEIRGENFHWQGDALVIGIGNGRQAGGGQQLCPTALINDGLLQLRIFTGEELLPALFSTLTQSDDNPNIIDGASAWFDIHAPHEITFNLDGEPLSGQEFHIEVLPGALRCRLPPDCPLLR | soluble |
| MANIEIRQESPSAFYIKVHETDNVAIIVNDHGLKAGTRFPDGLELTEHIPQGHKVALTDIPAHGEIIRYGEVIGYAVRDIPRGSWIDESLVELPKAPPLNTLPLATKVPEPLPPLEGYTFEGYRNADGSVGTKNLLGITTSVHCVAGVVDYVVKVIERDLLPKYPNVDGVVGLNHLYGCGVAINAPAAVVPIRTIHNIALNPNFGGEVMVIGLGCEKLQPERLLEGTEDVPAIAVESASIVRLQDEQHVGFKSMVDDILRVAERHLTKLNQRQRETCPASELVVGMQCGGSDAFSGVTANPAVGYASDLLVRCGATVMFSEVTEVRDAIHLLTPRAINEAVGKRLLDEMAWYDNYLDMGKTDRSANPSPGNKKGGLANVVEKALGSIAKSGKSAIVEVLSPGQRPTKRGLIYAATPASDFVCGTQQVASGITVQVFTTGRGTPYGLMAVPVIKMATRTELANRWYDLMDINAGTIATGEETIEDVGWKLFHFILDVASGRKKTFSDQWGLHNQLAVFNPAPVT | not soluble |
